± gives the uncertainty stated by the source.
assay: amyloid nucleation score (Sup35N fusion, yeast selection) (log enrichment); library NNK3; higher = more nucleation; inactive = no reads after selection
How it was run: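 Plasmid inserts were Illumina-sequenced at input and output from psi-negative yeast expressing Sup35N fused to peptides of 20 random codons. The yeast were induced with 100 μM copper sulfate for 24 hours and grown 7 days at 30°C on medium lacking adenine and uracil, and sequences with under 100 input reads were excluded. Nucleation score is the DiMSum log enrichment of output over input reads, centred on the mode score of non-aggregating sequences.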

Substance	amyloid nucleation score
ALVLNLDRVWVSLTDGPWSD	inactive
SRCNIFGRPSASIAR	inactive
WFERCLCLLTTRIKYLFSAD	inactive
YKYGPARCRKRGDSCAKGGG	inactive
NCKLFFSFGM	1.49 ± 0.094
NLRSLFKPWPVVPAYMRFME	inactive
KPVKTWNYLFWMCL	2.49 ± 0.072
AWNLS	inactive
TSSHLIGLFYDMLFRDTRSM	inactive
RNYFMVLGRKYVFLFFWMMM	inactive
INGSNNATCWVSLSIMKARI	inactive
HSIHSDNRVLWLFDWSLSSR	inactive
TNLSSSFLTQLRVILMSFLG	0.798 ± 0.2
RYVEWYLR	inactive
NCLSPTCRSVL	2.07 ± 0.097
FAIFGSWPKFFSCTP	0.378 ± 0.41
GWHYMYSGYANYIGFSLPLY	inactive
RVAQTAVRVSWALDRFYLWD	inactive
FELSYNWYNSNFVRRNVPFP	inactive
IRLYFQYFLLSG	2.35 ± 0.063
FALNL	inactive
GSRDYCVVNSIESDNCFQGW	inactive
SDFHCTQKRNMVWEEIA	inactive

Substance	amyloid nucleation score
NFLGAFRIPRLLRSLVALYL	inactive
ISDLTHFRYRDVPNLLVRTK	inactive
PFCFELSWGYGKNKVATMRY	inactive
HCFVANGFLD	inactive
RSTRIGLIYYMGMSATCTWG	inactive
SSYAYMRVCAFKVVEMVYWR	inactive
TWRYRKMYYRSDVNHCLFEV	inactive
KYNAIVLVYPKSADCVKTLM	0.387 ± 0.36
WASYDGPEKRRNHTRYYISM	inactive
CFANSSYLIGTCLRCACNDR	2.37 ± 0.072
LKCFEMNYQYGRRLNNG	inactive
GNNCPRVSIFNREAKIDNVL	inactive
RSMVGWACYLSWRFA	inactive
IWWILIDP	inactive
SHIFCSFFKSSYLNSGWQHG	inactive
SNCNPEWQLLIMIDCYNYAL	inactive
TSLLINVVLMVNRPGCP	1.67 ± 0.061
ANPGG	-1.05 ± 2.5
QVSFFSQIRV	inactive
YYLSTTGMWNFVSSNGALYG	-0.793 ± 1.3
ISPCVPKSAWSIFRIAI	inactive
YLEEARQYNLQRYWKDLKVL	inactive
AFIRFTVFNIGVKKYSCL	1.55 ± 0.065

Substance	amyloid nucleation score
QTNIWYSGPIGSYHC	inactive
SFYYILYTGCVIGIVASLFK	-0.408 ± 0.58
LMVSREFWCSLSKV	inactive
NSFDGTYVYTYLPSELSTFP	inactive
VCCSYY	1.32 ± 0.11
KFIWYIDDCWWCTTICSSGG	inactive
DRNSYVMCYPWGVVWCNHKS	1.03 ± 0.14
EFVVCTQCRVCDLIAFLGRN	2.84 ± 0.065
KLFRIKNGSVEVIWYRNMCQ	0.973 ± 0.14
VEDWATILSYY	inactive
LQYYLRPRFNLRLYGAIPPA	inactive
VVKFFVWLDVFYVWGLAGII	inactive
YPLRSGF	inactive
VIGHMIGMDY	inactive
VFSMWFSGLTTSIYRSLED	inactive
RLRFLRT	inactive
SVYFFQGTL	1.29 ± 0.084
IFWYEDKIYKMGWQFGGIAY	1.1 ± 0.11
CSPVTCEISDWIV	inactive
GWYLYIVTG	inactive
MILLGKNSLDPEGKGVCHVW	inactive
SPYNPHAFVTYSFCVYKD	1.88 ± 0.098
RRNWSCMQTLSLANVVRVSA	inactive

Substance	amyloid nucleation score
NVRFDGKVWLG	0.744 ± 0.31
DKWSWSVCNIRLSKSCNPVT	inactive
RRLVMDTTRLACKRYWRFLN	inactive
MRARLFNRITYIGNECNVLS	inactive
LGSGEATE	inactive
KRHYMGTAQGCMGIVLKVFY	inactive
NLNGLMRLQIAVLFQ	0.577 ± 0.21
FECKLNRGWSKQARWLNKLY	0.177 ± 0.38
DLTMVQLMIFMLIIIFFNLL	inactive
HFSYKSKCVGGRFLNDIDVY	inactive
RNRLN	inactive
SSIAMHCILIVFLKGLCVFR	inactive
LVFYMFAFITFVIYMMLIFY	0.163 ± 0.29
EHLRMCNLATIKLILLNVHP	inactive
CISSGGMLLNSFGSLWA	inactive
LETNG	inactive
DAYREY	-0.557 ± 1.2
YNRKWDMQY	inactive
NGGIERLSWVRVWFRHTFQS	inactive
RRKYW	inactive
CPKALRIIGRSYCRTSEVTS	inactive
EFFYINAMPVLYIDPYTSCF	inactive
YGMSTG	inactive

Substance	amyloid nucleation score
MIFKKDSLGMILHFHHYFYN	inactive
HVPGRIWDVFTRLLNEVLTN	inactive
YIALCLRYHTFLMKQEFHVG	inactive
SFITIVIVSVGMRSLVLHRL	inactive
GSGGAMELVRFYYLNVAVCV	inactive
AEWGFVGGIYWYLRKVPRSH	inactive
FRLILM	inactive
GLVYNNIWISLYFNGATVES	2.08 ± 0.06
WTYTKVWIWS	inactive
SYANIWVIHKLDGFMESSLL	inactive
YLNISGWSYFNCTRSWLLNR	inactive
GCRNVVCVVDGFSVM	inactive
DCRWVCKFYPPVFNVIVEKV	inactive
NETPVSDAESGVLDFTSHEL	inactive
DPTILSKVMLMEDTVKAREL	inactive
GWRFMLFRAQLFIWMIICFC	inactive
QSIARWTVLSFSWRTTSRKS	-0.416 ± 1.2
RMPRQGLWMRVF	inactive
TCCSVLLIKVSSNEGD	2.6 ± 0.078
NVQQALIHVSAHGCRFFLTC	2.71 ± 0.065
KGWLSSWVA	inactive
FSVMYRWRYFGDSAFWISVF	inactive
RHEVRRKKSQ	inactive

Substance	amyloid nucleation score
ESVGLISWFRVPIYSN	inactive
HTWSCCYFLS	2.54 ± 0.063
AVTDTNLLLFDVGYESLVHS	inactive
IDYAYGNVTNNPQKP	inactive
CDAWILFFWHVVNISYRVDK	inactive
GNITTRLHFFTNGFRPSFHG	inactive
MDVKKRQSSGVALRFELLDG	inactive
SPFFYFFWPGFR	inactive
VYNGSFWRVNLVNF	1.09 ± 0.095
MPSEILVSGIAGYAWAVSR	-0.504 ± 1.9
SGSAELARLHYRMELKAPYL	inactive
IWISYRMVSFEASKQSVVL	inactive
GELPLRVKVKSFHTDTSLRT	inactive
SRSNQNCLPSASMNVYLSVT	inactive
EMEASRG	inactive
CGYCVFPFLNGITVGGRFGH	1.29 ± 0.11
EGRDQDNIPLMNTTGMCFGA	inactive
GSYMYKKGLQF	inactive
SLCLYNSFLSSL	inactive
KLWPM	inactive
KYKLTLYDNAVSGGDALHLR	inactive
KDSQALHRFSNTILRYL	-0.406 ± 0.82
SSDNIVSGWWALSNKSATFV	inactive

Substance	amyloid nucleation score
MLDFICAVFSVKNWVGICFV	inactive
IFTHVVEEFS	inactive
YPLNLYYQAFYSLIGLVIPP	inactive
TCSFECGACTRQVDAVCQLG	inactive
CVSNLLTTYNNAFRFAHMVS	inactive
LCLFGLLYNIETFSIVVDYS	inactive
FFWVMISGVFLRRIHDSRSA	inactive
LITEGYAYFLNWVFRYISYW	inactive
MWVSAYWYNTCRYRFLSV	inactive
QRIESGPLDY	inactive
RLTACASYIGINGRSRN	inactive
SGLDFAYLDECSREGSVYAG	inactive
FLISIWGGIGNDNVSVVGVG	inactive
SMGTFNMVRLSGTWGMSAMY	0.757 ± 0.15
QGHNHYVTILRFIWFLRPAM	inactive
KGGWEADLYYVVCLVIISIW	inactive
LYAQNLV	inactive
YSDKDSLGSGNSFFSFSEKW	inactive
IESVRKHGGCTAFVSSWYVM	inactive
VGRSEIYPACPLHSFKMDKF	inactive
FGWLYNLNVSDIGTGD	inactive
